The results in this text go back to article PMC6774794 (Nature structural & molecular biology, 2019).

For experiment [1], the target named is dynein light chain LC8 (DYNLL1/2) (human) (UniProt P63167). As to the kind of experiment: cryo-EM structure.
For experiment [2], the target named is T1, dynein-2 intermediate chain WDR60 (human, UniProt Q8WVS4).
T1 sequence: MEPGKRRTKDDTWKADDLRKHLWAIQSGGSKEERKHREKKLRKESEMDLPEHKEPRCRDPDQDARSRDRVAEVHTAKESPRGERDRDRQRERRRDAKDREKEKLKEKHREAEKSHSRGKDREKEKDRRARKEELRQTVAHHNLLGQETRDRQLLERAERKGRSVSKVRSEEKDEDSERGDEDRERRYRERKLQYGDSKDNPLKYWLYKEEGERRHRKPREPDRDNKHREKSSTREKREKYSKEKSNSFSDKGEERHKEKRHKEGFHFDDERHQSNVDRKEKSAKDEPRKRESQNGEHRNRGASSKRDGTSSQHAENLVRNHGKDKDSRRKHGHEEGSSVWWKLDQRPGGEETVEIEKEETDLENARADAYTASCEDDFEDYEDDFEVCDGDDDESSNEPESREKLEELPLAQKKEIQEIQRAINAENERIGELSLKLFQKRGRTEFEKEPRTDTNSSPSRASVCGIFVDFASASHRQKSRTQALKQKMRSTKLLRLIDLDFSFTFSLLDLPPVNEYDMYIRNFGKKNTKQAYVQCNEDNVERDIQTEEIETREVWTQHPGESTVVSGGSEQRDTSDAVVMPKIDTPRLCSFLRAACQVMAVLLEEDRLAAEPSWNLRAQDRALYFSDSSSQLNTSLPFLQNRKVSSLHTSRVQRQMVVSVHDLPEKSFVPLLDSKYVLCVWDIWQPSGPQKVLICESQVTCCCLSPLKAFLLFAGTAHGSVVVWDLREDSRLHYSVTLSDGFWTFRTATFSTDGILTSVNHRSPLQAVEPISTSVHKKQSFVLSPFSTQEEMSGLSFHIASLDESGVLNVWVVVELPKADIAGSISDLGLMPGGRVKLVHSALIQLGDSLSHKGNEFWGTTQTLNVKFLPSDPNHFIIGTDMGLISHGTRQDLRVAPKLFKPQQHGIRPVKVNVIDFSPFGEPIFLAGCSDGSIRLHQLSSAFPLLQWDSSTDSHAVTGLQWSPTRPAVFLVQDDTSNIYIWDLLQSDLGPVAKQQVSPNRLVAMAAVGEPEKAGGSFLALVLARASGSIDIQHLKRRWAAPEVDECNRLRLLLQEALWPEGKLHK
Kind of experiment: cryo-EM structure.

The stoichiometry N is the number of molecules, sites or subunits per partner or assembly.

For the molecule “dynein light chain LC8 (DYNLL1/2) (from UniProt P63167) (natural protein)”, in experiment [1], the stoichiometry N is 2.

B1: dynein-2 intermediate chain WDR34 (natural protein)
chain: MATRAQPGPLSQAGSAGVAALATVGVASGPGPGRPGPLQDETLGVASVPSQWRAVQGIRWETKSCQTASIATASASAQARNHVDAQVQTEAPVPVSVQPPSQYDIPRLAAFLRRVEAMVIRELNKNWQSHAFDGFEVNWTEQQQMVSCLYTLGYPPAQAQGLHVTSISWNSTGSVVACAYGRLDHGDWSTLKSFVCAWNLDRRDLRPQQPSAVVEVPSAVLCLAFHPTQPSHVAGGLYSGEVLVWDLSRLEDPLLWRTGLTDDTHTDPVSQVVWLPEPGHSHRFQVLSVATDGKVLLWQGIGVGQLQLTEGFALVMQQLPRSTKLKKHPRGETEVGATAVAFSSFDPRLFILGTEGGFPLKCSLAAGEAALTRMPSSVPLRAPAQFTFSPHGGPIYSVSCSPFHRNLFLSAGTDGHVHLYSMLQAPPLTSLQLSLKYLFAVRWSPVRPLVFAAASGKGDVQLFDLQKSSQKPTVLIKQTQDESPVYCLEFNSQQTQLLAAGDAQGTVKVWQLSTEFTEQGPREAEDLDCLAAEVAA
For B1, the binding result in experiment [2] is reported as “binds”.
